The source of these data is US20160046703A1 (ORGENTEC DIAGNOSTIKA, published 2016).

The target of the experiment is bovine serum albumin (BSA) (bovine, UniProt P02769 25-607). Description: ELISA on BSA-coated microtitre plates, detection with peroxidase-labelled RGS-6xHis antibody. On the procedure: For the ELISA detection of the specific β2-glycoprotein-binding activity of the scFv-CAD reaction module, serial dilutions of scFv-CAD in the indicated concentration were applied to microtitre plates coated with β2-glycoprotein and, for control purposes, with bovine serum albumin (BSA). The binding was determined using a peroxidase-labelled RGS-6×-His antibody (Qiagen, Hilden) and a tetramethylbenzidine (TMB) colour reaction by measurement of the O.D. 450.
Chain of bovine serum albumin (BSA) (P02769 25-607 limits assumed): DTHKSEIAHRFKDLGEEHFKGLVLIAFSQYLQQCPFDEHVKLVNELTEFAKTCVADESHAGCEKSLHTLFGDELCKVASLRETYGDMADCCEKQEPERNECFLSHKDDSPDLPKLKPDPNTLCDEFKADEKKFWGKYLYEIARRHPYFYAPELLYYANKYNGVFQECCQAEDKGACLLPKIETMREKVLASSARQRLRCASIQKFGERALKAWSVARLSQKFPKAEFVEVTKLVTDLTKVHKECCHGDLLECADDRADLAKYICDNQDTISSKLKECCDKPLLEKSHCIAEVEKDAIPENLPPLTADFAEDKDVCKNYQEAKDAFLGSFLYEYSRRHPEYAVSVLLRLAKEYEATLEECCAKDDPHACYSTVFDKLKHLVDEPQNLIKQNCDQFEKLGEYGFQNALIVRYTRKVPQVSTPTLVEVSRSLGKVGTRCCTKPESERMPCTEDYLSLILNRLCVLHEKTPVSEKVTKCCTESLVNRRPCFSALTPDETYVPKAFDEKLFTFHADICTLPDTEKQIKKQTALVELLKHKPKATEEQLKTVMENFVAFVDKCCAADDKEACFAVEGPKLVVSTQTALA
Characterisation of the binding reaction of the CAD-IgG-CH3-Knob02 modubody to the target β2-glycoprotein. […] The binding was determined using a peroxidase-labelled RGS-6×-His antibody (Qiagen, Hilden) and a tetramethylbenzidine (TMB) colour reaction by measurement of the O.D. 450 nm.
In order to determine whether the CAD-IgG-CH3-Knob02 modubody has retained the β2-glycoprotein-binding activity of the scFv-CAD, purified CAD-IgG-CH3-Knob02 preparations were tested by immunoassays. […] The microtitre plates were washed and the binding of the CAD-IgG-CH3-Knob02 modubody was determined using a peroxidase-labelled RGS-6×-His antibody (Qiagen, Hilden) and a tetramethylbenzidine (TMB) colour reaction by measurement of the O.D. 450 nm. […] Specific binding to β2-glycoprotein was detected even at a concentration of the CAD-IgG-CH3-Knob02 modubody of 19 ng/ml.
A general note: An ELISA detects its analyte on a solid surface through an enzyme-linked reagent.

B1: scFv-CAD β2-glycoprotein-binding module (artificial protein sequence scFv-RP-CAD-P) (scFv)
scFv: LVPRGSDVLMTQTPLSLPVSLGDQASISCRSSQSIVHSNGNTYLEWYLQKPGQSPKLLIYKVSNRFSGVPDRFSGSGSGTDFTLKISRVEAEDLGVYYCFQGSHVPYTFGGGTKLEIKRTGSGSGGGGSGGGGSGGGGSSGGGGSGGGGSGGGGSGSGEVQLQQSGPELVKPGASVKISCKASGYTFTDYYMHWVRQRPGQGLEWIGEIYPGSGNTSYNEKFRGKATLTADKSSSTAYMQLSSLTSEDSAVYFCARGTLDYTMDYWGQGTSVTVSS
notes: Expressed in E. coli from pQE-80L as a 30 kDa protein; also called CAD-scFv; scFV-CAD reaction module; not shown: RGS-6xHis tag from expression vector pQE-80L (detected with anti-RGS-6xHis antib)
Take B1: the binding result is recorded as “no binding (tested: 0.019-10 µg/ml)”.

B2: single-chain CAD-IgG-CH3-Knob02 modubody (designed binder)
chain: LVPRGSDVLMTQTPLSLPVSLGDQASISCRSSQSIVHSNGNTYLEWYLQKPGQSPKLLIYKVSNRFSGVPDRFSGSGSGTDFTLKISRVEAEDLGVYYCFQGSHVPYTFGGGTKLEIKRTGSGSGGGGSGGGGSGGGGSSGGGGSGGGGSGGGGSGSGEVQLQQSGPELVKPGASVKISCKASGYTFTDYYMHWVRQRPGQGLEWIGEIYPGSGNTSYNEKFRGKATLTADKSSSTAYMQLSSLTSEDSAVYFCARGTLDYTMDYWGQGTSVTVSSGSGGGGSGGGGSGGGGSSGGGGSGGGGSGGGGSGSGEPQVYTLPPSREEMTKNQVSLYCLVKGFYPSDIAVEWESNGQPENNYKTYPPVLDSDGSFYLYSKLTVDKSRWQQGNVFSCSVMHEALHNHYTQKSLSL
notes: Domain order is VL-linker-VH-linker-IgG-CH3-Knob02, 44 kDa, made in E. coli; also called CAD-IgG-CH3-Knob32 (as misprinted once); not shown: RGS-6xHis tag from vector pQE-80L
B2: the binding result is “no binding (tested: 0.019-10 µg/ml)”.
